Data from paper PMC9091645.

Substrate: CCCC(=O)Oc1ccc([N+](=O)[O-])cc1
Assay: initial rates of p-nitrophenyl butyrate hydrolysis
Type: biochemical, Rhizopus arrhizus
Details: 30 °C, 25 mM phosphate buffer pH 8, substrate 10-100 mM

B1: ROL (Rhizopus oryzae lipase; wild type WROL) (Rhizopus arrhizus) (protein)
chain: SDGGKVAAATTAQIQEFTKYAGIAATAYCRSVVPGNKWDCVQCQKWVPDGKIITTFTSLLSDTNGYVLRSDKQKTIYLVFRGTNSFRSAITDIVFNFSDYKPVKGAKVHAGFLSSYEQVVNDYFPVIQEQLTANPTYKVIVTGHSLGGAQALLAGMDLYQREPRLSPKNLSIFTVGGPRVGNPTFAYYVESTGIPFQRTVHKRDIVPHVPPQSFGFLHPGVESWIKSGTSNVQICTSEIETKDCSNSIVPFTSLLDHLSYFDINEGSCL
**Q.** Which results are given for B1?
**A.** Km: 5.56 mM; Vmax: 2.34 µmol/min/mg; kcat: 1.25 s⁻¹; kcat/Km: 220 M⁻¹ s⁻¹
